Results published in the supplement of paper PMC6755084.

B1: F1*; the commonest letter at each place (parent)
chain: GAGACCGCAACTGAAAAGTTGTTATCACTTGTCGTAAGACACTTTGGATGGGTTGAAGTTCTGCACGTAGAAGCAAAAGGC

Variants of: B1
Experiment: fraction ligated after 30 min (ligated reads / total reads); higher = more ligase activity
Settings: with F1*sub RNA substrate (template-directed ligation), 42 °C
How it was run: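 Oligo-pool templates underwent PCR amplification, T7 transcription and gel purification to yield ribozyme variants. Gel-separated ligated and unligated bands were converted to complementary DNA with barcoded primers and sequenced on a MiSeq, keeping core bases of quality ≥20. The ratio of ligated reads to total reads gave the fraction ligated for every variant.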

Going from T35C A39G to T35C A39C, the fraction ligated falls from 0.833 to 0.824.

Going from T35C A39T to T35A A56T, the fraction ligated falls from 0.825 to 0.82.

First: T35A A56C
Second: T35A A56G
The fraction ligated of the first is higher: 0.802 for the first, 0.799 for the second.

Going from T35G A56G to T35G A56T, the fraction ligated rises from 0.791 to 0.802.

First: T35G A56C
Second: T35C C42T
The fraction ligated of the first is lower: 0.802 for the first, 0.856 for the second.

Going from T35C C42G to T35C C42A, the fraction ligated falls from 0.851 to 0.841.

Compared with T35G A37C, T35G A37T is lower in fraction ligated: 0.868 for the first, 0.846 for the second.

First: T35G A37G
Second: T35A T45G
The fraction ligated of the first is higher: 0.847 for the first, 0.408 for the second.

First: T35A T45C
Second: T35A T45A
The fraction ligated of the first is lower: 0.788 for the first, 0.797 for the second.

Compared with T35A G50A, T35A G50C is lower in fraction ligated: 0.638 for the first, 0.474 for the second.

Compared with T35A G50T, T35G A41G is higher in fraction ligated: 0.792 for the first, 0.816 for the second.

Compared with T35G A41C, T35G A41T is higher in fraction ligated: 0.808 for the first, 0.839 for the second.

Compared with T35A C40A, T35A C40G is higher in fraction ligated: 0.811 for the first, 0.834 for the second.

First: T35A C40T
Second: T35G A39T
The fraction ligated of the first is lower: 0.834 for the first, 0.836 for the second.

Compared with T35G A39C, T35G A39G is lower in fraction ligated: 0.816 for the first, 0.799 for the second.

First: T35C G38C
Second: T35C G38T
The fraction ligated of the first is lower: 0.815 for the first, 0.821 for the second.

Going from T35C G38A to T35C C40G, the fraction ligated falls from 0.856 to 0.817.

Going from T35C C40T to T35C C40A, the fraction ligated falls from 0.862 to 0.84.

First: T35A T44A
Second: T35A T44C
The fraction ligated of the first is higher: 0.838 for the first, 0.826 for the second.

Compared with T35A T44G, T35C T44C is higher in fraction ligated: 0.821 for the first, 0.841 for the second.

Going from T35C T44G to T35C T44A, the fraction ligated rises from 0.823 to 0.851.

Compared with T35C T45G, T35C T45C is higher in fraction ligated: 0.399 for the first, 0.783 for the second.

Going from T35C T45A to A36C, the fraction ligated rises from 0.748 to 0.833.

Compared with T35G T44C, T35G T44G is lower in fraction ligated: 0.854 for the first, 0.851 for the second.

Going from T35G T44A to T35C T43C, the fraction ligated falls from 0.843 to 0.777.

First: T35C T43A
Second: T35C T43G
The fraction ligated of the first is higher: 0.839 for the first, 0.797 for the second.

Going from T35G C42T to T35G C42G, the fraction ligated rises from 0.838 to 0.857.

Going from T35G C42A to T35C, the fraction ligated falls from 0.846 to 0.839.

Compared with T35G, T35C A57C is lower in fraction ligated: 0.839 for the first, 0.813 for the second.

Compared with T35C A57T, T35C A57G is lower in fraction ligated: 0.825 for the first, 0.822 for the second.

First: A36C A39G
Second: A36C A39T
The fraction ligated of the first is higher: 0.826 for the first, 0.802 for the second.

Compared with A36C A39C, T35A G46C is lower in fraction ligated: 0.803 for the first, 0.799 for the second.

First: T35A G46T
Second: T35A G46A
The fraction ligated of the first is lower: 0.783 for the first, 0.837 for the second.

Compared with T35A A57C, T35A A57G is higher in fraction ligated: 0.82 for the first, 0.847 for the second.

First: T35A A57T
Second: T35G G47C
The fraction ligated of the first is higher: 0.809 for the first, 0.222 for the second.

First: T35G G47T
Second: T35G G47A
The fraction ligated of the first is lower: 0.391 for the first, 0.78 for the second.

First: T35C A37C
Second: T35C A37G
The fraction ligated of the first is lower: 0.845 for the first, 0.881 for the second.

First: T35C A37T
Second: T35C G50A
The fraction ligated of the first is higher: 0.847 for the first, 0.608 for the second.

Compared with T35C G50T, T35C G50C is lower in fraction ligated: 0.753 for the first, 0.437 for the second.

First: T35A G47T
Second: T35A G47A
The fraction ligated of the first is lower: 0.398 for the first, 0.811 for the second.

First: T35A G47C
Second: T35A G55A
The fraction ligated of the first is lower: 0.221 for the first, 0.868 for the second.

Compared with T35A G55C, T35A G55T is higher in fraction ligated: 0.819 for the first, 0.834 for the second.

Compared with A36C A37T, A36C A37G is lower in fraction ligated: 0.837 for the first, 0.825 for the second.

First: A36C A37C
Second: T35G C40A
The fraction ligated of the first is lower: 0.821 for the first, 0.838 for the second.

Going from T35G C40T to T35G C40G, the fraction ligated falls from 0.851 to 0.837.

Going from T35C G55T to T35C G55A, the fraction ligated rises from 0.804 to 0.841.

Compared with T35C G55C, T35A T49G is higher in fraction ligated: 0.796 for the first, 0.817 for the second.

Going from T35A T49A to T35A T49C, the fraction ligated rises from 0.763 to 0.768.

First: T35C G46T
Second: T35C G46C
The fraction ligated of the first is lower: 0.778 for the first, 0.792 for the second.

First: T35C G46A
Second: T35G G55T
The fraction ligated of the first is higher: 0.829 for the first, 0.809 for the second.

Compared with T35G G55C, T35G G55A is higher in fraction ligated: 0.807 for the first, 0.819 for the second.

First: T35A A48C
Second: T35A A48T
The fraction ligated of the first is lower: 0.752 for the first, 0.8 for the second.

First: T35A A48G
Second: T35A T43C
The fraction ligated of the first is higher: 0.801 for the first, 0.794 for the second.

Going from T35A T43A to T35A T43G, the fraction ligated falls from 0.84 to 0.807.

Compared with T35G T45A, T35G T45C is lower in fraction ligated: 0.772 for the first, 0.747 for the second.

Compared with T35G T45G, T35G T43C is higher in fraction ligated: 0.388 for the first, 0.807 for the second.

Compared with T35G T43A, T35G T43G is lower in fraction ligated: 0.819 for the first, 0.801 for the second.

Compared with T35A A41G, T35A A41T is higher in fraction ligated: 0.811 for the first, 0.831 for the second.

Going from A36C A41G to A36C A41C, the fraction ligated rises from 0.741 to 0.782.

Going from A36C A41T to T35G G38T, the fraction ligated rises from 0.814 to 0.845.

Going from T35G G38A to T35G G38C, the fraction ligated rises from 0.847 to 0.865.

Compared with T35G G50C, T35G G50A is higher in fraction ligated: 0.486 for the first, 0.659 for the second.

Going from T35G G50T to T35C A41C, the fraction ligated falls from 0.795 to 0.777.

First: T35C A41T
Second: T35C A41G
The fraction ligated of the first is higher: 0.819 for the first, 0.783 for the second.

Going from T35G T49G to T35G T49C, the fraction ligated falls from 0.778 to 0.727.

First: T35G T49A
Second: T35G A48G
The fraction ligated of the first is lower: 0.748 for the first, 0.79 for the second.

First: T35G A48C
Second: T35G A48T
The fraction ligated of the first is lower: 0.755 for the first, 0.789 for the second.

Compared with T35A C42T, T35A C42G is lower in fraction ligated: 0.85 for the first, 0.847 for the second.

First: T35A C42A
Second: T35C A36C
The fraction ligated of the first is higher: 0.845 for the first, 0.8 for the second.

First: T35C A36G
Second: T35C A36T
The fraction ligated of the first is higher: 0.847 for the first, 0.839 for the second.

Going from T35C G47A to T35C G47T, the fraction ligated falls from 0.811 to 0.36.

First: T35C G47C
Second: T35G G46A
The fraction ligated of the first is lower: 0.213 for the first, 0.809 for the second.

Going from T35G G46C to T35G G46T, the fraction ligated falls from 0.803 to 0.784.

Going from A36C A48C to A36C A48G, the fraction ligated rises from 0.778 to 0.784.

Going from A36C A48T to T35A G38T, the fraction ligated rises from 0.8 to 0.855.

Compared with T35A G38A, T35A G38C is lower in fraction ligated: 0.863 for the first, 0.855 for the second.

Going from T35C T49G to T35C T49C, the fraction ligated falls from 0.804 to 0.731.

Compared with T35C T49A, T35G A57G is higher in fraction ligated: 0.756 for the first, 0.838 for the second.

First: T35G A57C
Second: T35G A57T
The fraction ligated of the first is higher: 0.805 for the first, 0.804 for the second.

Going from T35C A48G to T35C A48T, the fraction ligated falls from 0.805 to 0.792.

Going from T35C A48C to T35C A56C, the fraction ligated falls from 0.766 to 0.759.

Compared with T35C A56T, T35C A56G is lower in fraction ligated: 0.796 for the first, 0.782 for the second.

Going from T35G A36C to T35G A36T, the fraction ligated rises from 0.824 to 0.851.

With T35G A36G the fraction ligated was 0.845.
